Results as given in patent US20120245327.

Experiments:
[1] = target: T1, recombinant human collagen Type III (purified product of TT061226-1-3 strain)
T1 chain: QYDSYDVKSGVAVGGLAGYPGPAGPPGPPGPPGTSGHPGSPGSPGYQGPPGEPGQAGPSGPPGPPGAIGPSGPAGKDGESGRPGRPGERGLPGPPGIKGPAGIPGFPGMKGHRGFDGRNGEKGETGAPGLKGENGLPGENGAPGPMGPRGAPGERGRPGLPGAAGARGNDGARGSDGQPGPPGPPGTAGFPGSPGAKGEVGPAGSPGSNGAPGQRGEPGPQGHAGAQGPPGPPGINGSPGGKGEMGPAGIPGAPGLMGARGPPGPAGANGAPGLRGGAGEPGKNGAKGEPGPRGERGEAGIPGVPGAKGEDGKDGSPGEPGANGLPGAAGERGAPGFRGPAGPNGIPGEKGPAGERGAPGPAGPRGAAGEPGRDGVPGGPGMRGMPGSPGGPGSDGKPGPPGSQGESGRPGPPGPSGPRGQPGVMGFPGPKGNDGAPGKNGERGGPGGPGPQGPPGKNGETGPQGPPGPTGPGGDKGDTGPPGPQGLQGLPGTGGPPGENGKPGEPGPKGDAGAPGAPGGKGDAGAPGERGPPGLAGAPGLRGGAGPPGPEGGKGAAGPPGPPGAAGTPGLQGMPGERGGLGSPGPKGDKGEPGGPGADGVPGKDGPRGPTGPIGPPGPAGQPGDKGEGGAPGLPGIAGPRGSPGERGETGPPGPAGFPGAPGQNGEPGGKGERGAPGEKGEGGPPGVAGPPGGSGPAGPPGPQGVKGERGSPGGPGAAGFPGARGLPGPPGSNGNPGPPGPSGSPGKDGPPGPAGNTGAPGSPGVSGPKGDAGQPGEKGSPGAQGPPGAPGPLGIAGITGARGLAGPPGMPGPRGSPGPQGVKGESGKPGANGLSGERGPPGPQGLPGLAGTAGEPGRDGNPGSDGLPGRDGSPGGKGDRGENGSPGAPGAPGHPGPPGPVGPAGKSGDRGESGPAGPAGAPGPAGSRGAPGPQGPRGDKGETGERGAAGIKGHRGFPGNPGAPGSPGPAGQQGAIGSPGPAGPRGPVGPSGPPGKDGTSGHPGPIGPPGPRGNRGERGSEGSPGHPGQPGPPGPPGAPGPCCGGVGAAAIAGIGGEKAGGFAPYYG

[2] = target: recombinant human collagen Type I (purified product of TT080417-1-8 strain)
Sequence of recombinant human collagen Type I (purified product of TT080417-1-8 strain) (chain, as listed by the source, chain 1 of 2): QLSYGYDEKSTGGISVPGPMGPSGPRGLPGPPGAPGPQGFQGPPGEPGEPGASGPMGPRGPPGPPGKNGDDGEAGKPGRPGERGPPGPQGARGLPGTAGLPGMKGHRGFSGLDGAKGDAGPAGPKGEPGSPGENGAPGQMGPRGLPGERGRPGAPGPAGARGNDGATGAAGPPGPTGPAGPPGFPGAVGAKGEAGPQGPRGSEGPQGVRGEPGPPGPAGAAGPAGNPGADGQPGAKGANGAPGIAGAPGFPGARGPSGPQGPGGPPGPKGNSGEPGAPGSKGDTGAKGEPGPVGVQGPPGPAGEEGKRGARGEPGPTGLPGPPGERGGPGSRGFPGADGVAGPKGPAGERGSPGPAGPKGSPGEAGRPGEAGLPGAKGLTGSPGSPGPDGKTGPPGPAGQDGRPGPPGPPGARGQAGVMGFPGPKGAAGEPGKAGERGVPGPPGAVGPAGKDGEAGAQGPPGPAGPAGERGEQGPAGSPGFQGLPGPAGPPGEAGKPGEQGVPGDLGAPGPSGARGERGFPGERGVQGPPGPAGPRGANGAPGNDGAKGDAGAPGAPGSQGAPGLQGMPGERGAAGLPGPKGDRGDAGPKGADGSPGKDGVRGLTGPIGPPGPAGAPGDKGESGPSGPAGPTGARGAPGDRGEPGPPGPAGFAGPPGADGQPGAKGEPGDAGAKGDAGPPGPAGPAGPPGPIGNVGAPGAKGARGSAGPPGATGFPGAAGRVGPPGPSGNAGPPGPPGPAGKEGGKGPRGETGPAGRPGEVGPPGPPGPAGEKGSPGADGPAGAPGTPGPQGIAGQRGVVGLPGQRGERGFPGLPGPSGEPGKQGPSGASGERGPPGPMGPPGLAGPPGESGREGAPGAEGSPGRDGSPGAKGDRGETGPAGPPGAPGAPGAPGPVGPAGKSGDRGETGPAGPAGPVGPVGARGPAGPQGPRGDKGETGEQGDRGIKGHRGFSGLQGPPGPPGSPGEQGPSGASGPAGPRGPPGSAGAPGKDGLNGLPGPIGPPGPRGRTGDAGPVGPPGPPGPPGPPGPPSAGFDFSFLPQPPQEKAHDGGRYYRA
Sequence of recombinant human collagen Type I (purified product of TT080417-1-8 strain) (chain, as listed by the source, chain 2 of 2): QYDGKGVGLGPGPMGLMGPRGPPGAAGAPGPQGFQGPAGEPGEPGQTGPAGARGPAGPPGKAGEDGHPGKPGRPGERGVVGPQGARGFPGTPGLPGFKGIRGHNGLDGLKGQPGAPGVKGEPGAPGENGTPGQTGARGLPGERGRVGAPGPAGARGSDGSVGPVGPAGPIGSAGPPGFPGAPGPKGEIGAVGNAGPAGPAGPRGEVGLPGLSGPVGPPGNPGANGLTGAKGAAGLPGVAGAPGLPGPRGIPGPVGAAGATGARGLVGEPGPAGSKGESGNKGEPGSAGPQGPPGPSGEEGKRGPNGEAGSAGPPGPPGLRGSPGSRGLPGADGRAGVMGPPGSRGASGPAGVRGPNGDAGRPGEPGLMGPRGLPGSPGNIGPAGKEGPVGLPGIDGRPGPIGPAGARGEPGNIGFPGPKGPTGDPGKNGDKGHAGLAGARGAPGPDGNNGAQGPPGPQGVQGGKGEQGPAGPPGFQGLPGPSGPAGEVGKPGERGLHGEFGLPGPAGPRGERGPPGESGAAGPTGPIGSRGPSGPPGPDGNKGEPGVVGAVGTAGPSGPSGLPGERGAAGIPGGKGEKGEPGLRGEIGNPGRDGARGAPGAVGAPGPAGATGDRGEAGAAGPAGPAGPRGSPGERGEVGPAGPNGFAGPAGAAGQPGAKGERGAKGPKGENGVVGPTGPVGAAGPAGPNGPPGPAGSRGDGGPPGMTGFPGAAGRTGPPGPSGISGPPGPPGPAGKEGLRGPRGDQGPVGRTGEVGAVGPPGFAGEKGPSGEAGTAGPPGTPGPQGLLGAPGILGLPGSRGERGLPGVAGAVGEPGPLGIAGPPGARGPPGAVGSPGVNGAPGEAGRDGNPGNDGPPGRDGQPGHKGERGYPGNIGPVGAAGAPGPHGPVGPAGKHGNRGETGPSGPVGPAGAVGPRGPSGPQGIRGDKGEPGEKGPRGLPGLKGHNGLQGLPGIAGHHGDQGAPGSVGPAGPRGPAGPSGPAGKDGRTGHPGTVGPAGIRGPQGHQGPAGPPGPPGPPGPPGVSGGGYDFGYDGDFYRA

B1: lysyl hydroxylase 1 (protein)
chain: KGDAKPEDNLLVLTVATKETEGFRRFKRSAQFFNYKIQALGLGEDWNVEKGTSAGGGQKVRLLKKALEKHADKEDLVILFTDSYDVLFASGPRELLKKFRQSRSQVVFSAEELIYPDRRLETKYPVVSDGKRFLGSGGFIGYAPNLSKLVAEWEGQDSDSDQLFYTKIFLDPEKREQINITLDHRCRIFQNLDGALDEVVLKFEMGHVRARNLAYDTLPVLIHGNGPTKLQLNYLGNYIPRFWTFETGCTVCDEGLRSLKGIGDEALPTVLVGVFIEQPTPFVSLFFQRLLRLHYPQKHMRLFIHNHEQHHKAQVEEFLAQHGSEYQSVKLVGPEVRMANADARNMGADLCRQDRSCTYYFSVDADVALTEPNSLRLLIQQNKNVIAPLMTRHGRLWSNFWGALSADGYYARSEDYVDIVQGRRVGVWNVPYISNIYLIKGSALRGELQSSDLFHHSKLDPDMAFCANIRQQDVFMFLTNRHTLGHLLSLDSYRTTHLHNDLWEVFSNPEDWKEKYIHQNYTKALAGKLVETPCPDVYWFPIFTEVACDELVEEMEHFGQWSLGNNKDNRIQGGYENVPTIDIHMNQIGFEREWHKFLLEYIAPMTEKLYPGYYTRAQFDLAFVVRYKPDEQPSLMPHHDASTFTINIALNRVGVDYEGGGCRFLRYNCSIRAPRKGWTLMHPGRLTHYHEGLPTTRGTRYIAVSFVDP
composition ratio of hydroxylated lysine to the total lysine residues (amino acid analysis of purified collagen) [1]: a composition ratio of hydroxylated lysine to the total lysine residues was increased up to 36.9%
composition ratio of hydroxylated lysine to the total lysine residues (amino acid analysis of purified collagen) [2]: a composition ratio of the hydroylated lysine to the total lysine residues was increased up to 50.1%
